# B1: TPR t1 (parent)
# chain: GACCAAUCUGCCCUCAGAGCUCGAGAACAUCUUCGGAUGCAGAGGAGGCAGGCUUCGGUGGCGCGAUAGCGCCAACGUCCUCAACCUCCAAUGCAUCCCACCACAUGAUGAUGCCUGAAGAGCCUUGGUUUUUUG
# Variants of: B1
# Test: polymerase ribozyme fitness, log enrichment relative to wild type (log ratio); higher = more active; in vitro selection for triplet polymerase activity
# Procedure, shortened: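 Mutant libraries were PCR-built and transcribed for each subunit of a heterodimeric triplet polymerase ribozyme and selected for one round in triplicate at −7 °C, frozen, before gel excision of extended constructs and streptavidin-bead capture. Input and output libraries were Illumina-sequenced, keeping genotypes with ≥10 input reads and ≥1 read per output. Fitness is a logarithmic ratio of genotype to wild-type enrichment, in base 2, using inverse-variance-weighted replicate averages.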
row,Variant,polymerase ribozyme fitness (log ratio)
1,C11G G39A C49G C53U G69A A75U G120C,-2.05
2,C11U G48U G113A,-2.84
3,C11G C64U C115U U130A,-1.38
4,C11U G60U U78C U116C,-2.11
5,C11U A27U G52C G61C,-4.18
6,C12A C49A C82A,-1.3
7,C11U U59A A91G A118U,-1.98
8,C11G C72G C82G G117C,-3.64
9,C12A C88U U109A C114A U133C,-6.51
10,C11U U59C G93A,-1.49
11,C11U A26G G45A G58A,-5.7
12,C11U C20A A29U G117U,-4.71
13,C11G G63A C82G G117U C123G,-2.82
14,C11U G44A C79U A119U,-1.69
15,C11U G19A C53G U55A A91C,-2.36
16,C12A A37C,-1.93
17,C11G G25C G39A C56A C72G C82A A111C,-7.55
18,C12A G58A G61C C79U C82A A83C C114U,-5.31
19,C11U C97A,-4.6
20,C12A A37G U132A,-1.37
21,C12A C79A A111G,-2.24
22,C12A A41C C72U U92G A111G,-1.91
23,C12A C70A U92A,-5.67
24,C11U C20G C72U,-3

row,Variant,polymerase ribozyme fitness (log ratio)
1,C11U C15A A26G C53G G63U G120C,-4.53
2,C12A C22G A27U,-4.16
3,C11G G63U C88A,-1.57
4,C11G G36U A43U G61A G63A C115U U125A U132A,-6.45
5,C11G G77A,-0.375
6,C11U U33A,-4.31
7,C11G G52A C94A,0.0249
8,C12A G47A C72G G93A,-4.15
9,C11U G128A,-2.45
10,C11G G44A A68G,-4.14
11,C12A C20A G63A U87A G122U,-4.81
12,C12A G17U C20A G42A G45U A90G C123A,-4.53
13,C11U A118G U133A,-0.694
14,C11U A43U G60U A90C,-1.62
15,C11U U112C,1.46
16,C11U U112A,1.19
17,C11G G42U G45U G51C G120A U134G,-4.64
18,C11G C115G,-1.35
19,C11U G42C,-2.01
20,C12A C82A,-0.699
21,C11G C62A,-0.516
22,C11U A46U C86U,-2.1
23,C11U A66C C94U,-1.69
24,C11G C13A C82G A84G,-1.63

row,Variant,polymerase ribozyme fitness (log ratio)
1,C11G G42C C53A,-1.03
2,C12A C64U A90C,-2.08
3,C11G C28A,-2.78
4,C12A G19C C85U A91U G122U,-3.66
5,C11U C72U A83U C101G,-1.79
6,C12A A46U C114U,-3.89
7,C11G C40A G48U C70U,-1.6
8,C11U C102U,-2.09
9,C11U A41U C62U C85A C102U C114G G120C,-6.27
10,C12A A29U C86A,-2.52
11,C12A A26G A121C,-1.17
12,C11G C28G G60A A68C U81A U106C G127C,-6.42
13,C11U U78A C97A,-5.69
14,C11G G44A A121U,1.52
15,C11G G42U C124U,0.5
16,C11U A46U C86G C104U,-2.24
17,C11G G127C,-0.995
18,C11G U78C,0.168
19,C11G C15U G25C A111C A118G,-6.56
20,C12A C89U C101A A111U,-5.17
21,C11G G19U C82U,-5.29
22,C11G U21A C53A C97G,-3.53
23,C11U C49U C101A,-2.29
24,C12A C20A G113U C115U U131A,-3.38

row,Variant,polymerase ribozyme fitness (log ratio)
1,C11G C20G C73U U106A G107A,-5.37
2,C11G G69C,-1.7
3,C11U G52A A118G,-0.222
4,C12A A18C U112C C124U,-0.619
5,C11U A50C G60U G77A G122A,0.303
6,C12A C40G C104U G128U,-3.15
7,C11U G44C C104U U116C,-3.59
8,C11U A24U G65C A103C A108U A111U,-6.52
9,C11G U54C G60U C86U,-0.56
10,C12A C20A G63C G113U C115U U131A,-3.61
11,C11U C94G,-1.27
12,C11U C94U,-1.24
13,C11U C34A U87A,-3.12
14,C11U C88G C114A U126A,-5.99
15,C12A G61C,-2.46
16,C12A C40U U87G,-1.56
17,C12A C40U A111C U131A,-0.623
18,C11G C56U A74U A84G G135U,-1.8
19,C11G U59G U92A C114U A121C G128U,-3.21
20,C12A C62G U133G,-1.75
21,C11G C72A C79U A90G C101G A121C U131A,0.276
22,C11U C15U,-2.2
23,C11G G35C G71U G110U,-7.04
24,C11U C22A A37G A68G C72A U109A,-5.84

row,Variant,polymerase ribozyme fitness (log ratio)
1,C11U C40U G122A,0.00533
2,C11U C12U A111C G122A,-0.0374
3,C11U C12A U14G G36U,-4.16
4,C12A G17U U96A G120U,-1.6
5,C12A C123A,0.369
6,C12A A24C C97U,-7.95
7,C11U G63A C72A,-7.14
8,C11U A27U,-1.89
9,C11U C72G,-0.586
10,C11U C22U U38C,-4.76
11,C12A C99U,-3.06
12,C11U A41G U78G C97U,-1.63
13,C11G C20U A26C A27G G44U C114U,-6.01
14,C11G U33G G93U U112A G122U,-6.28
15,C11U C62G,-1.21
16,C12A A27G C34G G61U A118C C123G,-8.42
17,C11U G36A G63U,-2.37
18,C11G C88U U116C,-0.109
19,C12A G42C C73A C80U A118G,-3.44
20,C11U C12G C28U U32C C49A C56G,-2.91
21,C11U G39U C102A C104U A111G,-1.71
22,C11G C73U C85A A111G,-0.304
23,C12A G48A U55C G57U U59G C85U,-3.61
24,C12A C72A,0.329

row,Variant,polymerase ribozyme fitness (log ratio)
1,C11U A26U C49G C73U,-3.93
2,C11U U87G G113U,-4.06
3,C11G G61C A66U A75C C114U,-3.81
4,C11G G19A C53U C89A,-2.96
5,C11U G77U U112C,1.4
6,C12A C62A,-1.05
7,C11G C12G C79G C94U G117A U131A,-2.71
8,C11U C123U,1.77
9,C11U C34G A46U G120A A121G,-5.6
10,C11G G36U G47U G63A U78G,-2.93
11,C11U C56A U116C,-2.85
12,C11G C70U C79A,-1.87
13,C11U G63C C80U,-2.73
14,C11U C22G A26C,-3.57
15,C12A G44A C72G A100U,-2.22
16,C12A G45U C56U G93A,-2.57
17,C12A G17C G48C,-6.47
18,C11G C124A,2.13
19,C11G C13U U32C G65A G113C G120U,-6.75
20,C11U C56G U112G,-0.0117
21,C12A A41U A43U C104U U129G,-4.67
22,C11G C40U C53U U87A A90U U112A G127C,-2.43
23,C12A A18G C40U,-4.84
24,C12A A46U C49U A95G C99U A111G U116A,-6.56

row,Variant,polymerase ribozyme fitness (log ratio)
1,C12A G19U G42U C70A U92A U112C U129G,-5.98
2,C12A G45U G51C G52U U59C C123G,-5.71
3,C11U A43U C53G,-2.46
4,C12A C88U G110C,-4.61
5,C11U C56U G128C,-3.11
6,C11U C70A,-0.922
7,C11G G42C,-1.1
8,C12A G57U C72U,-0.582
9,C12A G57A G69C U106C,-2.99
10,C11U G93A,-0.986
11,C11U U55A C80A C86G C124G,-4.52
12,C11U G45C,-1.59
13,C11U C56A C123U,1.37
14,C11U C98U,-1.79
15,C11G C22U,-2.75
16,C11G G117U,-1.54
17,C11G C13A C88G,-2.71
18,C11G C76U G120A,2.23
19,C11U C79G U92A U106C U112A,-5.83
20,C11G C86G,-1.7
21,C12A C72A C99A G120U G128U,-7.62
22,C12A A26U G61A U131G,-4.35
23,C11G G120C,1.89

# Source: the RNAGym collection of RNA variant scans (doi:10.1073/pnas.2313332121)
